B1: Ab320 (antibody, V domains shown)
VH: QVQLQQSGAELVKPGASVKISCKASGYAFSSYWMNWVKQRPGKGLEWIGQIYPGDGDTNYNGKFKGKATLTADKSSSTAYMQLSSLTSEDSAVYFCASYYYGSKAYWGQGTLVTVSA
VL: DIQMTQSPASLAASVGETVTITCRASENIYYSLAWYQQKQGKSPQLLIYNANSLEDGVPSRFSGSGSGTQYSMKINSMQPEDTATYFCKQAYDVPFTFGSGTKLEIKR
notes: rodent hybridoma mAb
B2: Ab330 (antibody, V domains shown)
VH: EVQVVETGGGVVQPGKSLEITCATSGLTFSTAWMYWVRQSSDRRLEWIARIKDKSNKFASDYVESVRGRFTISRDDSRSSVYLQMNNLKEEDTATYYCTTSYGYAWGQGVMVTVSS
VL: DIQMTQSPSSMSASLGDRVTITCQASQDIGNYLIWFQQKPGKSPRPLIYYATNLANGVPSRFSGSRSGSEYSLTITSLESEDMADYHCLQYKQHLTFGSGTKLEIER
notes: rodent hybridoma mAb
B3: Ab329 (antibody, V domains shown)
VH: QVQLKESGPGLVKPSATLSLTCTVSGFSLTSYHVCWIRQTPGKGLEWMGVIWGDGRTTYNPPLKSRLSISRDTSKSQVFLKMSSLKTEDTATYYCARATMTGHGDAWGQGASVTVSS
VL: DIQMTQSPASLSASLEEIVTITCQASQDIDNYLSWYQQKPGKSPHLLIHSATSLADGVPSRFSGGRSGTQFSLKINRLQVEDTGIYYCLQHYSGWTFGGGTKLELKR
notes: rodent hybridoma mAb
B4: Ab415 (antibody, V domains shown)
VH: QVQLVQSGAEVAKPGASVKLSCKASGYTFTSYWMHWVKQAPGQGLEWIGYIKPSSGYTKYNQKFKDKATLTADKSTSTAYMELRSLRSDDTAVYYCARDYYGSSSWFAYWGQGTLVTVSS
VL: EIVMTQSQATLSTSPGERATLSCKASQNVGTNVAWYQQKPGQAPRALIYSASYRYSGVPARFSGSGSGTDFTLTISSVEPEDFAVYYCQQYNSYPYMYTFGQGTKLEIK
notes: humanized
B5: Ab436 (antibody, V domains shown)
VH: B4 VH with Q1E, A9P, A12K, A16T, K38R, P41R, G44R, K67R, R84S, D89E
VL: B4 VL with L11M, P15V, A43S, R45K, S50G, Y53T, Y55A, S56T
notes: humanized
B6: Ab438 (antibody, V domains shown)
VH: EVQLVQSGAEVKKPGTSVKLSCKASGYTFTSYWMHWVRQARGQRLEWIGYIKPSSGYTKYAQKFQERVTLTADKSTSTAYMELSSLRSEDTAVYYCARDYYGSSSWFAYWGQGTLVTVSS
VL: B4 VL with L11M, P15V, A43S, R45K, S50G, Y53T, Y55A, S56T
notes: humanized
B7: Ab442 (antibody, V domains shown)
VH: B6 VH with T16A, R41P, R44G, F64L, E66G, S84R, E89D
VL: B4 VL with L11M, P15V, A43S, R45K, S50G, Y53T, Y55A, S56T
notes: humanized
B8: Ab439 (antibody, V domains shown)
VH: B4 VH
VL: B4 VL with L11M, P15V, A43S, R45K, S50G, Y53T, Y55A, S56T
notes: humanized
B9: Ab434 (antibody, V domains shown)
VH: B6 VH with T16S, T30S, R38K, R41P, R44G, E66G
VL: B4 VL with Q8P, K24R, N28S, G30S, T31S, V33L
notes: humanized
B10: Ab430 (antibody, V domains shown)
VH: B6 VH with T16A, R41P, R44G, F64L, E66G, S84R, E89D
VL: B4 VL with Q8P, K24R, N28S, G30S, T31S, V33L
notes: humanized
B11: Ab435 (antibody, V domains shown)
VH: B4 VH with A16T, A68V, R84S, D89E
VL: B4 VL with L11M, P15V, A43S, R45K, S50G, Y53T, Y55A, S56T
notes: humanized
B12: Ab426 (antibody, V domains shown)
VH: B6 VH
VL: B4 VL with Q8P, K24R, N28S, G30S, T31S, V33L
notes: humanized
B13: Ab406 (antibody, V domains shown)
VH: B6 VH with T16A, R41P, R44G, F64L, E66G, S84R, E89D
VL: B4 VL with L11M, P15V, A43S, R45K
notes: humanized
B14: Ab446 (antibody, V domains shown)
VH: B6 VH with T16S, T30S, R38K, R41P, R44G, E66G
VL: B4 VL with L11M, P15V, A43S, R45K, S50G, Y53T, Y55A, S56T
notes: humanized
B15: Ab419 (antibody, V domains shown)
VH: B4 VH with A16S, R84S, D89E
VL: B4 VL
notes: humanized
B16: Ab443 (antibody, V domains shown)
VH: B4 VH with A16S, R84S, D89E
VL: B4 VL with L11M, P15V, A43S, R45K, S50G, Y53T, Y55A, S56T
notes: humanized
B17: Ab423 (antibody, V domains shown)
VH: B4 VH with A16T, A68V, R84S, D89E
VL: B4 VL with Q8P, K24R, N28S, G30S, T31S, V33L
notes: humanized
B18: Ab441 (antibody, V domains shown)
VH: B4 VH with Q1E, K38R
VL: B4 VL with L11M, P15V, A43S, R45K, S50G, Y53T, Y55A, S56T
notes: humanized
B19: Ab424 (antibody, V domains shown)
VH: B6 VH with A9P, A61N, Q65K, E66D, V68A
VL: B4 VL with Q8P, K24R, N28S, G30S, T31S, V33L
notes: humanized
B20: Ab433 (antibody, V domains shown)
VH: B4 VH with Q1E, A12K, A16S, L20V, T30S, K38R, R84S, D89E
VL: B4 VL with Q8P, K24R, N28S, G30S, T31S, V33L
notes: humanized
B21: Ab418 (antibody, V domains shown)
VH: B6 VH with T16A, R41P, R44G, F64L, E66G, S84R, E89D
VL: B4 VL
notes: humanized
B22: Ab416 (antibody, V domains shown)
VH: B4 VH with Q1E, A12K, K38R
VL: B4 VL
notes: humanized
B23: Ab427 (antibody, V domains shown)
VH: B4 VH
VL: B4 VL with Q8P, K24R, N28S, G30S, T31S, V33L
notes: humanized
B24: Ab432 (antibody, V domains shown)
VH: B4 VH with Q1E, A12K, A16S, K38R, R84S, D89E
VL: B4 VL with Q8P, K24R, N28S, G30S, T31S, V33L
notes: humanized
B25: Ab440 (antibody, V domains shown)
VH: B4 VH with Q1E, A12K, K38R
VL: B4 VL with L11M, P15V, A43S, R45K, S50G, Y53T, Y55A, S56T
notes: humanized
B26: Ab422 (antibody, V domains shown)
VH: B6 VH with T16S, T30S, R38K, R41P, R44G, E66G
VL: B4 VL
notes: humanized
B27: Ab428 (antibody, V domains shown)
VH: B4 VH with Q1E, A12K, K38R
VL: B4 VL with Q8P, K24R, N28S, G30S, T31S, V33L
notes: humanized
B28: Ab445 (antibody, V domains shown)
VH: B4 VH with Q1E, A12K, A16S, L20V, T30S, K38R, R84S, D89E
VL: B4 VL with L11M, P15V, A43S, R45K, S50G, Y53T, Y55A, S56T
notes: humanized
B29: Ab421 (antibody, V domains shown)
VH: B4 VH with Q1E, A12K, A16S, L20V, T30S, K38R, R84S, D89E
VL: B4 VL
notes: humanized
B30: Ab429 (antibody, V domains shown)
VH: B4 VH with Q1E, K38R
VL: B4 VL with Q8P, K24R, N28S, G30S, T31S, V33L
notes: humanized
B31: Ab417 (antibody, V domains shown)
VH: B4 VH with Q1E, K38R
VL: B4 VL
notes: humanized
B32: Ab425 (antibody, V domains shown)
VH: B4 VH with Q1E, A12K, A16T, Y32S, W33A, H35Q, R84S, D89E
VL: B4 VL with Q8P, K24R, N28S, G30S, T31S, V33L
notes: humanized
B33: Ab431 (antibody, V domains shown)
VH: B4 VH with A16S, R84S, D89E
VL: B4 VL with Q8P, K24R, N28S, G30S, T31S, V33L
notes: humanized
B34: Ab444 (antibody, V domains shown)
VH: B4 VH with Q1E, A12K, A16S, K38R, R84S, D89E
VL: B4 VL with L11M, P15V, A43S, R45K, S50G, Y53T, Y55A, S56T
notes: humanized

Residue numbers refer to the chain shown, from its start.

T1 sequence (Q9UM73 21-1620): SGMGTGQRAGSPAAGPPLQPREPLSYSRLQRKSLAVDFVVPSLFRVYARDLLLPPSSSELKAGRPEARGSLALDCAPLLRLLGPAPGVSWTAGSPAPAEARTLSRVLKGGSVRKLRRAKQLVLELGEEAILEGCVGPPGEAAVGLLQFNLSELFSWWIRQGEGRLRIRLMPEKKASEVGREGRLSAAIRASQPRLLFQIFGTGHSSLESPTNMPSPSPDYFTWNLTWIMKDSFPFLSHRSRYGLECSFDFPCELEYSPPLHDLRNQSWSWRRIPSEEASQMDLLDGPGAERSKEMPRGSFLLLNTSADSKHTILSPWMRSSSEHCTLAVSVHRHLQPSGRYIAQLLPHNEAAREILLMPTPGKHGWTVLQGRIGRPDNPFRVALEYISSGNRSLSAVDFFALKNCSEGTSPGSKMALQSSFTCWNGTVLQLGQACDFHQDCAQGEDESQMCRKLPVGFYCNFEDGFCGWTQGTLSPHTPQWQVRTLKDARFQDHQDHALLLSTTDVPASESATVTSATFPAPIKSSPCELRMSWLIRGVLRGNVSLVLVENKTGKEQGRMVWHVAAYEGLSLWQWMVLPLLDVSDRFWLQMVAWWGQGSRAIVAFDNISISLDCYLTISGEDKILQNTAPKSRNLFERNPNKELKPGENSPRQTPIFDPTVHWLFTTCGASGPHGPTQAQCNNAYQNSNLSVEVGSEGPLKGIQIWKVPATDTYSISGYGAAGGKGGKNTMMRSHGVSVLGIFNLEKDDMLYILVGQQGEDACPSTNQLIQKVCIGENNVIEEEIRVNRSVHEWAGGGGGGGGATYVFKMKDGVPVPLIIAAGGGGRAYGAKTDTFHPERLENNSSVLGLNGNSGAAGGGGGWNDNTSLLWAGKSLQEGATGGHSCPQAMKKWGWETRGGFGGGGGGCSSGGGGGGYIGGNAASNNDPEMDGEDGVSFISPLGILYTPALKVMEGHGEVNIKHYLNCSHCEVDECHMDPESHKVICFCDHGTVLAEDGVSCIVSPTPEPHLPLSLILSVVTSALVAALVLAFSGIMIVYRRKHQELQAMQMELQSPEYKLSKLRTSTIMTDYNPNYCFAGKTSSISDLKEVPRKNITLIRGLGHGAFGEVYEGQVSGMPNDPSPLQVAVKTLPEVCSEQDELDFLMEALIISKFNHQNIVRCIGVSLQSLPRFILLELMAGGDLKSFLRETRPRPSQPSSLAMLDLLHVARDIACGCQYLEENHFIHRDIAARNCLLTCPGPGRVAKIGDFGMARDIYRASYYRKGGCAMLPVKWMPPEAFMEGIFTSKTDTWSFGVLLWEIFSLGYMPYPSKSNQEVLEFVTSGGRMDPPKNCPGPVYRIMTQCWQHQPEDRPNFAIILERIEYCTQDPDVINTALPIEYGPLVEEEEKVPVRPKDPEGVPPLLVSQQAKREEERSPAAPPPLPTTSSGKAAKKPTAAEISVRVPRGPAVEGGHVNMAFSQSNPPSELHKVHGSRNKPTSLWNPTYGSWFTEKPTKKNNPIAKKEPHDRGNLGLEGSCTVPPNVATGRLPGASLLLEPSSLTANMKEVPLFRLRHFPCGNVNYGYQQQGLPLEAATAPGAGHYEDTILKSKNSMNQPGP

The first test addresses T1, human ALK on the surface of NB1 cells (human, UniProt Q9UM73 21-1620).
T1 construct: ALK of NB1 cells; also called cell surface hALK; NB1 (human)
Description: flow cytometry titration on NB1 cells, steady state. As for the experimental part:
KD was determined by flow cytometry. Titration of each antibody on NB1 cells for 2-4 hours at 4° C. was followed by incubation with a fluorescently-labeled secondary antibody. The normalized mean fluorescent intensity […] shown as “% Max binding” was plotted as a function of antibody concentration.
Flow cytometry was utilized to measure the affinity at steady state (KD) with which different ALK antibodies bind to ALK on the surface of NB1 cells (FIG. 3). Titration of each antibody on NB1 cells for 2-4 hours at 4° C. was followed by incubation with a fluorescently-labeled secondary antibody. The normalized mean fluorescent intensity (MFI) shown as “% Max binding” was plotted as a function of antibody concentration. The data were fit to a one site binding isotherm using GraphPad Prism, from which affinity values were derived.
For orientation: Flow cytometry measures light scatter and fluorescence of single cells or particles in a stream.
As usually defined, the Kd is a measure of binding affinity in units of concentration. A high value points to weaker binding. B1: the Kd was 0.35 nM.

For the molecule B2, the affinity, expressed as Kd, was 3.13 nM.

With B3, the Kd is 0.34 nM.

Another test deals with T2, purified ALK protein (BLitz, Table 20) (Homo sapiens (Human), UniProt Q9UM73 19-1038, limits assumed).
T2 construct: also called purified ALK proteins
T2 sequence (Q9UM73 19-1038 limits assumed): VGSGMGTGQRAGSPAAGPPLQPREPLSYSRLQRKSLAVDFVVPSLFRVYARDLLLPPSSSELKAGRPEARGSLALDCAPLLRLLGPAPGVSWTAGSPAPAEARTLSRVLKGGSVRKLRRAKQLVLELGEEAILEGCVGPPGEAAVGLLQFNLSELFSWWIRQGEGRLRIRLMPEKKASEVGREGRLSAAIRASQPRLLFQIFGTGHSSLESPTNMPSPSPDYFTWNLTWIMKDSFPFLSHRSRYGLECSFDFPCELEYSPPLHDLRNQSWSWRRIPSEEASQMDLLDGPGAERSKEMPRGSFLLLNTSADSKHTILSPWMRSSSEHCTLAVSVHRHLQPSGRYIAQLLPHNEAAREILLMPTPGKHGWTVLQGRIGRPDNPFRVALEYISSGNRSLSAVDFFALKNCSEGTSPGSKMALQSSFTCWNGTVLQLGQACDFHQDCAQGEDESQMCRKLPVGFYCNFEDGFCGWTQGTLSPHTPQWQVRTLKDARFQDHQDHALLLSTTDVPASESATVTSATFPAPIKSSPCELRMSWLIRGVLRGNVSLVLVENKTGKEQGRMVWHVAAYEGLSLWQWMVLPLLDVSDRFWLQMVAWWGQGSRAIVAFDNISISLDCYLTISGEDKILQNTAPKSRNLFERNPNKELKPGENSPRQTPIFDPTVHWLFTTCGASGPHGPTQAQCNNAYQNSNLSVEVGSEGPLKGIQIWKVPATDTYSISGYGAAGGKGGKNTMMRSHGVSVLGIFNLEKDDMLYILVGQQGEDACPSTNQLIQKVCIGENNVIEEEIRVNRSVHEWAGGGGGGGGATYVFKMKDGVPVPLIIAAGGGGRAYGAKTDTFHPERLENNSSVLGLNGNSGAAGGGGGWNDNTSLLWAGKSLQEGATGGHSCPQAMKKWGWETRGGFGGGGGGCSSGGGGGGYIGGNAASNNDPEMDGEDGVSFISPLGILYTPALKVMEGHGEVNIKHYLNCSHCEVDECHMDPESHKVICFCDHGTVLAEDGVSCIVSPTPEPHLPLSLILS
Description: BLI (BLitz), mAb on Protein A tip, purified ALK in solution. As for the experimental part: Kinetic measurements of the monovalent affinity of the 96 humanized ALK antibody variants (Ab351-Ab446) were collected. Affinity ranking was performed using a BLitz® System (ForteBio, Menlo Park, Calif.). Humanized anti-ALK antibodies were immobilized at 0.5 mg/mL using Protein A tips. Once baseline stability was ensured, purified ALK proteins at 70 μg/mL were added. The resulting kinetic data were fit to a single binding site equation, from which the quoted monovalent KD values were derived.
The molecule B4 gave a Kd of 128 nM.

Turning to B5, binding was characterised by a dissociation constant (Kd) of 120 nM.

The molecule B6 came in with a dissociation constant (Kd) of 310 nM.

Turning to B7, the Kd worked out at 219 nM.

As to B8, the affinity, expressed as Kd, was 138 nM.

Take B9: the Kd came to 329 nM.

B10 showed a Kd of 211 nM.

Molecule B11 showed a Kd of 317 nM.

In the case of B12, the dissociation constant Kd was determined as 868 nM.

As to B13, the Kd is 110 nM.

B14 came in with a Kd of 393 nM.

The molecule B15 showed a Kd of 107 nM.

For the molecule B16, the Kd was 145 nM.

As to B17, binding was put at a Kd of 266 nM.

With B18, the Kd turned out to be 167 nM.

B19 showed a Kd of 247 nM.

Molecule B20 returned a Kd of 197 nM.

With B21, binding was characterised by a dissociation constant (Kd) of 131 nM.

As for B22, the Kd is 180 nM.

With B23, the Kd came to 162 nM.

As to B24, the Kd worked out at 337 nM.

In the case of B25, the equilibrium dissociation constant (Kd) turned out to be 138 nM.

For the molecule B26, the Kd was determined as 173 nM.

Molecule B27 showed a Kd of 253 nM.

Molecule B28 gave a Kd of 521 nM.

B29: the equilibrium dissociation constant (Kd) was 280 nM.

With B30, the dissociation constant (Kd) worked out at 326 nM.

For the molecule B31, the Kd turned out to be 170 nM.

B32 displayed a Kd of 2290 nM.

Consider B33, for which the Kd came out at 252 nM.

In turn, B34 gave a Kd of 236 nM.

These data come from patent US20200157236A1 (CELLDEX THERAPEUTICS, published 2020).
